This assay concerns the target T1, human APJ receptor (hAPJ) (human, UniProt P35414 1-380).
T1 sequence (looked up): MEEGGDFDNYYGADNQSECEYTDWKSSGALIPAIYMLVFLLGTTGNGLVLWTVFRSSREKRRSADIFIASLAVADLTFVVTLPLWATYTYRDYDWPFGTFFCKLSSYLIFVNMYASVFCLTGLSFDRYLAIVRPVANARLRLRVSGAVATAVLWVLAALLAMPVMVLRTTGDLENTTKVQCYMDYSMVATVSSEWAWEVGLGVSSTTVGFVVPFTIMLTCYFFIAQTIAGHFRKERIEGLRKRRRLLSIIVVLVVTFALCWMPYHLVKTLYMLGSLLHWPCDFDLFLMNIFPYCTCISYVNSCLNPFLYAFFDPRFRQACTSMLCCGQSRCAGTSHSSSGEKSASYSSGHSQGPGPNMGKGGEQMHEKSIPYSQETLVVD
Kind of assay: cell-based or functional assay.

Bridges are numbered along the chain shown (N, C = ends). [ ]: non-standard residue; d: D form. The star is where a group is joined. Bip = N[C@@H](Cc1ccc(-c2ccccc2)cc1)C(=O)O; pGlu = O=C1CC[C@@H](C(=O)O)N1; Lauroyl = CCCCCCCCCCCC(=O)*; Nle = CCCC[C@H](N)C(=O)O; Orn = NCCC[C@H](N)C(=O)O; Dab = NCC[C@H](N)C(=O)O; AEEA = NCCOCCOCC(=O)O

Turning to [pGlu]RPCLCCKGP[Nle]CF-OH (disulfide 6-12, 4-7) [Example 28: pE-R-P-C-L-C-C-K-G-P-Nle-C-F-OH], the “hAPJ Ca2+ Flux EC50” value stood at 5.68 nM.

B1: Example 33: pE-R-p-R-L-C-H-K-G-P-Nle-C-F-OH (peptide)
peptide: [pGlu]R[dP]RLCHKGP[Nle]CF-OH
modifications: disulfide 6-12
SMILES: CCCC[C@@H]1NC(=O)[C@@H]2CCCN2C(=O)CNC(=O)[C@H](CCCCN)NC(=O)[C@H](Cc2c[nH]cn2)NC(=O)[C@@H](NC(=O)[C@H](CC(C)C)NC(=O)[C@H](CCCNC(=N)N)NC(=O)[C@H]2CCCN2C(=O)[C@H](CCCNC(=N)N)NC(=O)[C@@H]2CCC(=O)N2)CSSC[C@@H](C(=O)N[C@@H](Cc2ccccc2)C(=O)O)NC1=O
Take B1: the “hAPJ Ca2+ Flux EC50” value is 8.1 nM.

B2: Example 35: pE-R-D-R-L-C-H-K-G-P-Nle-C-F-OH (peptide)
peptide: [pGlu]RDRLCHKGP[Nle]CF-OH
modifications: disulfide 6-12
SMILES: CCCC[C@@H]1NC(=O)[C@@H]2CCCN2C(=O)CNC(=O)[C@H](CCCCN)NC(=O)[C@H](Cc2c[nH]cn2)NC(=O)[C@@H](NC(=O)[C@H](CC(C)C)NC(=O)[C@H](CCCNC(=N)N)NC(=O)[C@H](CC(=O)O)NC(=O)[C@H](CCCNC(=N)N)NC(=O)[C@@H]2CCC(=O)N2)CSSC[C@@H](C(=O)N[C@@H](Cc2ccccc2)C(=O)O)NC1=O
Regarding B2, the “hAPJ Ca2+ Flux EC50” value worked out at 11.1 nM.

B3: Example 37: pE-R-P-R-K-C-H-K-G-P-Nle-C-F-OH (peptide)
peptide: [pGlu]RPRKCHKGP[Nle]CF-OH
modifications: disulfide 6-12
SMILES: CCCC[C@@H]1NC(=O)[C@@H]2CCCN2C(=O)CNC(=O)[C@H](CCCCN)NC(=O)[C@H](Cc2c[nH]cn2)NC(=O)[C@@H](NC(=O)[C@H](CCCCN)NC(=O)[C@H](CCCNC(=N)N)NC(=O)[C@@H]2CCCN2C(=O)[C@H](CCCNC(=N)N)NC(=O)[C@@H]2CCC(=O)N2)CSSC[C@@H](C(=O)N[C@@H](Cc2ccccc2)C(=O)O)NC1=O
As for B3, the “hAPJ Ca2+ Flux EC50” value was 1.4 nM.

B4: Example 32: pE-E-P-R-L-C-H-K-G-P-Nle-C-F-OH (peptide)
peptide: [pGlu]EPRLCHKGP[Nle]CF-OH
modifications: disulfide 6-12
SMILES: CCCC[C@@H]1NC(=O)[C@@H]2CCCN2C(=O)CNC(=O)[C@H](CCCCN)NC(=O)[C@H](Cc2c[nH]cn2)NC(=O)[C@@H](NC(=O)[C@H](CC(C)C)NC(=O)[C@H](CCCNC(=N)N)NC(=O)[C@@H]2CCCN2C(=O)[C@H](CCC(=O)O)NC(=O)[C@@H]2CCC(=O)N2)CSSC[C@@H](C(=O)N[C@@H](Cc2ccccc2)C(=O)O)NC1=O
For the molecule B4, the “hAPJ Ca2+ Flux EC50” value worked out at 518 nM.

B5: Example 38: pE-R-P-R-L-C-H-E-G-P-Nle-C-F-OH (peptide)
peptide: [pGlu]RPRLCHEGP[Nle]CF-OH
modifications: disulfide 6-12
SMILES: CCCC[C@@H]1NC(=O)[C@@H]2CCCN2C(=O)CNC(=O)[C@H](CCC(=O)O)NC(=O)[C@H](Cc2c[nH]cn2)NC(=O)[C@@H](NC(=O)[C@H](CC(C)C)NC(=O)[C@H](CCCNC(=N)N)NC(=O)[C@@H]2CCCN2C(=O)[C@H](CCCNC(=N)N)NC(=O)[C@@H]2CCC(=O)N2)CSSC[C@@H](C(=O)N[C@@H](Cc2ccccc2)C(=O)O)NC1=O
For B5, the “hAPJ Ca2+ Flux EC50” value stood at 182 nM.

B6: Example 36: pE-R-P-F-L-C-H-K-G-P-Nle-C-F-OH (peptide)
peptide: [pGlu]RPFLCHKGP[Nle]CF-OH
modifications: disulfide 6-12
SMILES: CCCC[C@@H]1NC(=O)[C@@H]2CCCN2C(=O)CNC(=O)[C@H](CCCCN)NC(=O)[C@H](Cc2c[nH]cn2)NC(=O)[C@@H](NC(=O)[C@H](CC(C)C)NC(=O)[C@H](Cc2ccccc2)NC(=O)[C@@H]2CCCN2C(=O)[C@H](CCCNC(=N)N)NC(=O)[C@@H]2CCC(=O)N2)CSSC[C@@H](C(=O)N[C@@H](Cc2ccccc2)C(=O)O)NC1=O
Consider B6, for which the “hAPJ Ca2+ Flux EC50” value stood at 7.36 nM.

Turning to [pGlu]RCRLCCKGP[Nle]CF-OH (disulfide 6-12, 3-7) [Example 29: pE-R-C-R-L-C-C-K-G-P-Nle-C-F-OH], the “hAPJ Ca2+ Flux EC50” value is 4.33 nM.

On to [pGlu]RPRL[Orn]HFGP[Nle]D-Phenethylamine (lactam 6-12) [Example 3: pE-R-P-R-L-Orn-H-F-G-P-Nle-D-Phenethylamine], for which the “hAPJ Ca2+ Flux EC50” value was 1010 nM.

B7: Example 30: pE-r-P-R-L-C-H-K-G-P-Nle-C-F-OH (peptide)
peptide: [pGlu][dR]PRLCHKGP[Nle]CF-OH
modifications: disulfide 6-12
SMILES: CCCC[C@@H]1NC(=O)[C@@H]2CCCN2C(=O)CNC(=O)[C@H](CCCCN)NC(=O)[C@H](Cc2c[nH]cn2)NC(=O)[C@@H](NC(=O)[C@H](CC(C)C)NC(=O)[C@H](CCCNC(=N)N)NC(=O)[C@@H]2CCCN2C(=O)[C@@H](CCCNC(=N)N)NC(=O)[C@@H]2CCC(=O)N2)CSSC[C@@H](C(=O)N[C@@H](Cc2ccccc2)C(=O)O)NC1=O
For B7, the “hAPJ Ca2+ Flux EC50” value stood at 6.05 nM.

B8: Example 34: pE-R-K-R-L-C-H-K-G-P-Nle-C-F-OH (peptide)
peptide: [pGlu]RKRLCHKGP[Nle]CF-OH
modifications: disulfide 6-12
SMILES: CCCC[C@@H]1NC(=O)[C@@H]2CCCN2C(=O)CNC(=O)[C@H](CCCCN)NC(=O)[C@H](Cc2c[nH]cn2)NC(=O)[C@@H](NC(=O)[C@H](CC(C)C)NC(=O)[C@H](CCCNC(=N)N)NC(=O)[C@H](CCCCN)NC(=O)[C@H](CCCNC(=N)N)NC(=O)[C@@H]2CCC(=O)N2)CSSC[C@@H](C(=O)N[C@@H](Cc2ccccc2)C(=O)O)NC1=O
Regarding B8, the “hAPJ Ca2+ Flux EC50” value was 3.21 nM.

B9: Example 40: pE-R-P-E-L-C-H-K-G-P-Nle-C-F-OH (peptide)
peptide: [pGlu]RPELCHKGP[Nle]CF-OH
modifications: disulfide 6-12
SMILES: CCCC[C@@H]1NC(=O)[C@@H]2CCCN2C(=O)CNC(=O)[C@H](CCCCN)NC(=O)[C@H](Cc2c[nH]cn2)NC(=O)[C@@H](NC(=O)[C@H](CC(C)C)NC(=O)[C@H](CCC(=O)O)NC(=O)[C@@H]2CCCN2C(=O)[C@H](CCCNC(=N)N)NC(=O)[C@@H]2CCC(=O)N2)CSSC[C@@H](C(=O)N[C@@H](Cc2ccccc2)C(=O)O)NC1=O
Turning to B9, the “hAPJ Ca2+ Flux EC50” value was 7.99 nM.

B10: Example 39: pE-R-P-R-L-C-H-K-D-P-Nle-C-F-OH (peptide)
peptide: [pGlu]RPRLCHKDP[Nle]CF-OH
modifications: disulfide 6-12
SMILES: CCCC[C@@H]1NC(=O)[C@@H]2CCCN2C(=O)[C@H](CC(=O)O)NC(=O)[C@H](CCCCN)NC(=O)[C@H](Cc2c[nH]cn2)NC(=O)[C@@H](NC(=O)[C@H](CC(C)C)NC(=O)[C@H](CCCNC(=N)N)NC(=O)[C@@H]2CCCN2C(=O)[C@H](CCCNC(=N)N)NC(=O)[C@@H]2CCC(=O)N2)CSSC[C@@H](C(=O)N[C@@H](Cc2ccccc2)C(=O)O)NC1=O
Take B10: the “hAPJ Ca2+ Flux EC50” value was 8.2 nM.

B11: Example 26: pE-R-P-R-L-C-H-K-G-P-Nle-C-K(Lauroyl)-OH (peptide)
peptide: [pGlu]RPRLCHKGP[Nle]CK(Lauroyl)-OH
modifications: disulfide 6-12
SMILES: CCCCCCCCCCCC(=O)NCCCC[C@H](NC(=O)[C@@H]1CSSC[C@H](NC(=O)[C@H](CC(C)C)NC(=O)[C@H](CCCNC(=N)N)NC(=O)[C@@H]2CCCN2C(=O)[C@H](CCCNC(=N)N)NC(=O)[C@@H]2CCC(=O)N2)C(=O)N[C@@H](Cc2c[nH]cn2)C(=O)N[C@@H](CCCCN)C(=O)NCC(=O)N2CCC[C@H]2C(=O)N[C@@H](CCCC)C(=O)N1)C(=O)O
As for B11, the “hAPJ Ca2+ Flux EC50” value came to 29.8 nM.

B12: Example 27: pE-R-P-R-L-C-K(Lauroyl)-K-G-P-Nle-C-F-OH (peptide)
peptide: [pGlu]RPRLCK(Lauroyl)KGP[Nle]CF-OH
modifications: disulfide 6-12
SMILES: CCCCCCCCCCCC(=O)NCCCC[C@@H]1NC(=O)[C@@H](NC(=O)[C@H](CC(C)C)NC(=O)[C@H](CCCNC(=N)N)NC(=O)[C@@H]2CCCN2C(=O)[C@H](CCCNC(=N)N)NC(=O)[C@@H]2CCC(=O)N2)CSSC[C@@H](C(=O)N[C@@H](Cc2ccccc2)C(=O)O)NC(=O)[C@H](CCCC)NC(=O)[C@@H]2CCCN2C(=O)CNC(=O)[C@H](CCCCN)NC1=O
In the case of B12, the “hAPJ Ca2+ Flux EC50” value came out at 65.5 nM.

B13: Example 31: pE-F-P-R-L-C-H-K-G-P-Nle-C-F-OH (peptide)
peptide: [pGlu]FPRLCHKGP[Nle]CF-OH
modifications: disulfide 6-12
SMILES: CCCC[C@@H]1NC(=O)[C@@H]2CCCN2C(=O)CNC(=O)[C@H](CCCCN)NC(=O)[C@H](Cc2c[nH]cn2)NC(=O)[C@@H](NC(=O)[C@H](CC(C)C)NC(=O)[C@H](CCCNC(=N)N)NC(=O)[C@@H]2CCCN2C(=O)[C@H](Cc2ccccc2)NC(=O)[C@@H]2CCC(=O)N2)CSSC[C@@H](C(=O)N[C@@H](Cc2ccccc2)C(=O)O)NC1=O
With B13, the “hAPJ Ca2+ Flux EC50” value was found to be 84.1 nM.

B14: Example 41: pE-R-P-R-(4-PhF)-C-H-K-G-P-Nle-C-F-OH (peptide)
peptide: [pGlu]RPR[Bip]CHKGP[Nle]CF-OH
modifications: disulfide 6-12
SMILES: CCCC[C@@H]1NC(=O)[C@@H]2CCCN2C(=O)CNC(=O)[C@H](CCCCN)NC(=O)[C@H](Cc2c[nH]cn2)NC(=O)[C@@H](NC(=O)[C@H](Cc2ccc(-c3ccccc3)cc2)NC(=O)[C@H](CCCNC(=N)N)NC(=O)[C@@H]2CCCN2C(=O)[C@H](CCCNC(=N)N)NC(=O)[C@@H]2CCC(=O)N2)CSSC[C@@H](C(=O)N[C@@H](Cc2ccccc2)C(=O)O)NC1=O
On to B14, for which the “hAPJ Ca2+ Flux EC50” value stood at 6.91 nM.

B15: Example 25: Lauroyl-O2Oc-Q-R-P-R-L-C-H-K-G-P-Nle-C-F-OH (peptide)
peptide: Lauroyl-[AEEA]QRPRLCHKGP[Nle]CF-OH
modifications: disulfide 7-13
SMILES: CCCCCCCCCCCC(=O)NCCOCCOCC(=O)N[C@@H](CCC(N)=O)C(=O)N[C@@H](CCCNC(=N)N)C(=O)N1CCC[C@H]1C(=O)N[C@@H](CCCNC(=N)N)C(=O)N[C@@H](CC(C)C)C(=O)N[C@H]1CSSC[C@@H](C(=O)N[C@@H](Cc2ccccc2)C(=O)O)NC(=O)[C@H](CCCC)NC(=O)[C@@H]2CCCN2C(=O)CNC(=O)[C@H](CCCCN)NC(=O)[C@H](Cc2c[nH]cn2)NC1=O
For the molecule B15, the “hAPJ Ca2+ Flux EC50” value was determined as 24.5 nM.

For [pGlu]RPRL[Dab]HFGP[Nle]D-Phenethylamine (lactam 6-12) [Example 4: pE-R-P-R-L-Dab-H-F-G-P-Nle-D-Phenethylamine], the “hAPJ Ca2+ Flux EC50” value was determined as 747 nM.
